From patent publication US20200277405A1, “COMPOSITION FOR ANTIBODY-DRUG CONJUGATE DIRECTED AGAINST TUMOR-CELL ASSOCIATED POLYSIALIC ACID” (Cornell University, priority 2019, published 2020)
Entries after “also recorded” stand apart in the source; their conditions may differ.

How the values were obtained:
[1] = molecular target: chicken brain-derived polysialylated neural cell adhesion molecule (NCAM) (chicken) (UniProt P13590); assay: SPR (Biacore 3000), antibody captured on Protein A chip, NCAM 0.25-250 nM in solution, equilibrium fit with Hill slope
[2] = molecular target: chicken brain-derived polysialylated neural cell adhesion molecule (NCAM) (chicken) (UniProt P13590); assay: ELISA, chicken brain NCAM coated on the plate, ch735 titrated, anti-human IgG secondary, Abs370
[3] = molecular target: chicken brain-derived polysialylated neural cell adhesion molecule (NCAM) (chicken) (UniProt P13590); assay: ELISA, NCAM coated on the plate, ch735 titrated (x axis 'ch735 [ng/mL]'), HRP secondary, Abs450
[4] = molecular target: chicken brain-derived polysialylated neural cell adhesion molecule (NCAM) (chicken) (UniProt P13590); assay: ELISA, chicken brain NCAM coated on the plate, mo735 titrated, anti-mouse IgG secondary, Abs370
[5] = system: MCF7 (polySia negative externally) cells; assay: Internalization of scFv735, MCF7; type: cell-based, human; conditions: MCF7, 2 hours, 0-1,000 nM
Description: (§1) FIG. 15 depicts cellular internalization of a polySia-specific single-chain Fv (scFv735) constructed by genetically fusing together the DNA encoding the variable heavy (VH) and variable light (VL) genes derived from mo735 with a flexible GlySer linker.
(§2) A polySia-specific single-chain […] (scFV735) was constructed by genetically fusing together the DNA encoding the variable heavy (VH) and variable light (VL) genes derived from mo735 with a flexible GlySer linker. Alexa Fluor 488 labeled scFv735 was incubated with SW2 (polySia positive externally) and MCF7 (polySia negative externally) cells for 2 hours at different concentrations ranging from 0-1,000 nM at either 4° C. or 37° C. (internalization). After incubation, the cells were washed and extracellular fluorescence was quenched with 0.2% Trypan Blue. Intracellular Fluoresence (geometric mean fluorescence intensity, MFI) indicative of internalized scFv735 was measured by flow cytometery.

[6] = system: SW2 (polySia positive externally) cells; assay: Internalization of scFv735, SW2; type: cell-based, human
Description: as §1, §2

[7] = Nagae et al.; cited from earlier work
NCAM = NCAM (Homo sapiens, UniProt P13591); conditions: Target NCAM; literature; cited from earlier work

B1: chimeric human IgG1 mAb ch735 (antibody, V domains shown)
VH: QIQLQQSGPELVRPGASVKISCKASGYTFTDYYIHWVKQRPGEGLEWIGWIYPGSGNTKYNEKFKGKATLTVDTSSSTAYMQLSSLTSEDSAVYFCARGGKFAMDYWGQGTSVTVSS
VL: DVVMTQTPLSLPVSLGDQASISCRSSQSLVHSNGNTYLYWYLQKPGQSPKPLIYRVSNRFSGVPDRFSGSGSGTDFTLKISRVEAEDLGVYFCFQGTHVPYTFGGGTRLEIK
B1 gave a Kd [1] of 4.79 nM, an EC50 (read off the curve) [2] of 10 ng/mL and an EC50 (read off the curve) [3] of 10 ng/mL.

B2: mouse IgG2a mAb 735 (mo735) (antibody, V domains shown)
VH: B1 VH
VL: B1 VL
In the case of B2, the Kd [1] is reported as 10.2 nM and the EC50 (read off the curve) [4] is reported as 10 ng/mL.

B3: scFv735: polySia-specific single-chain Fv fusing VH and VL of mo735 with a flexible GlySer linker (protein)
scFv: DVVMTQTPLSLPVSLGDQASISCRSSQSLVHSNGNTYLYWYLQKPGQSPKPLIYRVSNRFSGVPDRFSGSGSGTDFTLKISRVEAEDLGVYFCFQGTHVPYTFGGGTRLEIKGGGGSGGGGSGGGGSQIQLQQSGPELVRPGASVKISCKASGYTFTDYYIHWVKQRPGEGLEWIGWIYPGSGNTKYNEKFKGKATLTVDTSSSTAYMQLSSLTSEDSAVYFCARGGKFAMDYWGQGTSVTVSS
In the case of B3, the “internalization (intracellular fluorescence)” value (shortened to “internalization”) [5] is reported as “not”, the “internalization” value ([6]; SW2, 2 hours, 0-1,000 nM, 37° C.) is reported as “observed to internalize; also recorded: increase with increasing concentration” and the “internalization” value ([6]; temperature reduced to 4° C.) is reported as “blocked”. For the same molecule, the “degree of polymerization (DP) of shorter sialic acids bound” value [7] was roughly 3.

B4: Lorvotuzumab DM1: CD56-targeting antibody-drug conjugate, literature (conjugate, chains of the INN, looked up)
VH: QVQLVESGGGVVQPGRSLRLSCAASGFTFSSFGMHWVRQAPGKGLEWVAYISSGSFTIYYADSVKGRFTISRDNSKNTLYLQMNSLRAEDTAVYYCARMRKGYAMDYWGQGTLVTVSS
VL: DVVMTQSPLSLPVTLGQPASISCRSSQIIIHSDGNTYLEWFQQRPGQSPRRLIYKVSNRFSGVPDRFSGSGSGTDFTLKISRVEAEDVGVYYCFQGSHVPHTFGQGTKVEIK
modifications: DM1 mertansine payload
notes: CD56-targeting antibody-drug conjugate, literature
In the case of B4, the EC50 (NCAM) is listed as 0.2 to 5 nM.
